Data: patent US20170226511, “[…] FOR BINDING […] PROTEINS” (National University of Singapore, published 2017)

B1: BN-B03-DNA unmodified (ssDNA)
DNA: GAAGGTGAAGGTCGGCTGAAGCATTAGACCTAAGCACGCTGCCACAAGTCCTGGTTCCCTGGCTTAGGTCTAATGCACCATCATCACCATCTTC
B2: BN-B99-DNA unmodified (ssDNA)
DNA: GAAGGTGAAGGTCGGCTGAAGCATCAGACCTAAGCCCAAATTGCCGCAGACTCGTTGTGAAGCTTAGGTCTAATGCACCATCATCACCATCTTC

Target: West Nile virus envelope protein domain III (WNDIII, WNE-rDIII) (West Nile virus strain Wengler, UniProt P06935 P06935:582-692)
Sequence (P06935 582-692, one chain of several): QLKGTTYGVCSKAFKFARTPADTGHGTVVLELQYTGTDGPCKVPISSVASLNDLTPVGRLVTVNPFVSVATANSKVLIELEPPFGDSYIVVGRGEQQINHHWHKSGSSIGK
Experiment: ELONA; unmodified DNA unable to bind
Details: tags: 6xHis; with or without biotin acceptor peptide (BAP); label: 5' biotin

Binder	binding result
B1	no binding
B2	no binding
